Tests used:
[1] = target: GAL4 DB-HDA19 fusion (pDBLeu-HDA19), expressed in MaV203 yeast (yeast; Arabidopsis thaliana) (UniProt P04386); test: cell-based or functional assay
[2] = target: tobacco ortholog of the transcription repressor HDA19 (tobacco); test: cell-based or functional assay
[3] = scale: % further reduction relative to the other mutants
[4] = scale: % reduction relative to full-length bnKCP1

Row | β-galactosidase activity (lacZ reporter, yeast two-hybrid, CPRG) (% reduction relative to wild type BnSCL1) [1] | Substance | further results
1 | > 50 | GAL4 AD-BnSCL1^1-261 fusion (pPC86-BnSCL1^1-261), expressed in MaV203 yeast | –
2 | > 50 | GAL4 AD-BnSCL1^1-358 fusion (pPC86-BnSCL1^1-358), expressed in MaV203 yeast | –
3 | > 50 | GAL4 AD-BnSCL1^218-438 fusion (pPC86-BnSCL1^218-438), expressed in MaV203 yeast | β-galactosidase activity (lacZ reporter, yeast two-hybrid, CPRG) [1, 3]: > 50

Further lines, the substance ahead of its results:

Row | Substance | β-galactosidase activity (lacZ reporter, yeast two-hybrid, CPRG) (% reduction relative to wild type BnSCL1) [1] | further results
4 | GAL4 AD-BnSCL1^1-145 fusion (pPC86-BnSCL1^1-145), expressed in MaV203 yeast | > 50 | β-galactosidase activity (lacZ reporter, yeast two-hybrid, CPRG) [1, 3]: > 50
5 | GAL4 AD-BnSCL1^1-217 fusion (pPC86-BnSCL1^1-217), expressed in MaV203 yeast | > 50 | –
6 | GAL4 AD-BnSCL1^146-358 fusion (pPC86-BnSCL1^146-358), expressed in MaV203 yeast | > 50 | –
7 | GAL4 AD-bnKCP1^1-80 fusion (pPC86-bnKCP1^1-80), expressed in MaV203 yeast (from UniProt Q84U09 1-80) | – | β-galactosidase activity (lacZ reporter, yeast two-hybrid, CPRG) [1, 4]: > 50
8 | GAL4 AD-bnKCP1^1-160 fusion (pPC86-bnKCP1^1-160), expressed in MaV203 yeast (from UniProt Q84U09 1-160) | – | β-galactosidase activity (lacZ reporter, yeast two-hybrid, CPRG) [1, 4]: > 50
9 | GAL4BD-BnSCL1 fusion protein (effector plasmid GAL4-BnSCL1), expressed transiently in tobacco leaves (from UniProt P04386 1-147) | – | GUS gene expression (transient assay in bombarded tobacco leaves, fluorometric) [2]: 50 % decrease
